Substrate in the series: OC[C@H]1O[C@H](F)[C@H](O)[C@@H](O)[C@@H]1O
As to the kind of experiment: fluoride release, colorimetric (Alfusone), Michaelis-Menten fit. The class given is biochemical, Gluconobacter oxydans. The following applies: 130 mM sodium acetate pH 4.2, 35 °C, 0.2 mg/ml BSA. The text has this:
fluoride release, colorimetric (Alfusone), Michaelis-Menten fit on Δ382C (DDase-Δ382C)

Where a chain is given by its changes, count along the chain named. In names and notes the source's numbering stands.

B1: Δ382C (DDase-Δ382C) (Gluconobacter oxydans) (protein)
chain: MADNSDEQFVASDYTLLGDATDDPNGMVDMPAGQEPATTNAVPSGVEYNFLAATAGYYTVSFAYQNTANAAAYEQLSINGQNEPGVVEFDQTSGASTGTAYASVYLKAGLNSVELNNQTTDETNGLTPVPEDQLQASPAFQIGTSTVAAGASPSQETSAQSLAISNQTDMQAFVQGESMAPKQQWTFGPSLSELHVGSNDELNQLDFNAVWFRNVTPGQQAETYSPYFKSNESFDANGVLHVNYGAYSPTGQALPVQIQATYANVPNENLIVENLSLTNQNASGTQPLVWDVMNATGINPGEVSSTTWDPTHNAWIVTEDQGSGKSPLYLAIGDYQVSNSTHAAGVDGVNVRGSYSLSSGASGNPSLNAPDQGVIGGFENNGTMVGSSSGASGTNLAVGTTDSDVTLNPGQTVDLSYYLSTATSLSQLDANLDKYTNTVGSTTSSTPMTDATGASAASSWTQQTATAWDDTLNQAYNLAGSTETSGQAATAASGQTLDPTSSAAAQSAYRSSLINILQAQSPEYGSFMASTNPSYEYKVWVRDSAATAIGLDDAGLTQPADKFWRWMASVEQNGMNATYSGNASGTFSTNYGEFDQNLPIGFVAPENDSQGLFLIGSYRHYEQMLSEGQTQQAQSFISDPTVRQALVNSANWIQENIGSNGLGPADYSIWEDMYGYHTFTQVTYAEGLNAASQLASAMGEGNQAQTWATGAETIKDAILRPTTASTPGLWNAQEGHFVEMINPNGTIDNTIDADTNIAAVFGLVSPTSIYATENAQAVENALTQDNFGLSRYQNETFYQSSQWSPGGTYEAQGISPSWPQMTAYDSIVSMDSGNTTQANNDLSWIEQSYDNGGTPPGESYDWARGQPIESTSSEPVTASWYVQDLLNSTGQTSTLMPAITGQ
notes: C-terminal truncation Met1-Ser902 (domains N1, N2, HLH, A); N-terminal His6 tag (…) kept; E. coli BL21-CodonPlus(DE3)-RIL; 921 residues with tag; dimer 195,604 Da
Regarding B1, the Km was 40 ± 4 mM, the kcat was found to be 15 ± 1 s⁻¹ and the kcat/Km amounted to 380 M⁻¹ s⁻¹.

B2: Δ382C (DDase-Δ382C) (Gluconobacter oxydans; E671Q) (protein)
chain: B1 chain with E671Q
notes: as for B1
Regarding B2, the Km stood at 1.5 ± 0.1 mM, the kcat was determined as 0.025 ± 0.002 s⁻¹ and the catalytic efficiency (kcat/Km) is 17 M⁻¹ s⁻¹.

Values taken from paper PMC12446779, “Structural basis of transglucosylation in dextran dextrinase, a homolog of anomer-inverting GH15 glucoside hydrolases” (The Journal of Biological Chemistry, 2025).
